Test results reported in patent publication US20220403022A1 (Merck KGaA, published 2022).
Several values for one entry are separate records, joined by “and”; a condition that tells them apart may be missing. Identical values can stand only once.

Assays:
[1] = molecular target: T1, human TIGIT on cells (primary T cells, transfected HEK293 cells, Jurkat reporter cells, NK cells) (human, UniProt Q495A1 22-244); assay: cell-based or functional assay
T1 sequence: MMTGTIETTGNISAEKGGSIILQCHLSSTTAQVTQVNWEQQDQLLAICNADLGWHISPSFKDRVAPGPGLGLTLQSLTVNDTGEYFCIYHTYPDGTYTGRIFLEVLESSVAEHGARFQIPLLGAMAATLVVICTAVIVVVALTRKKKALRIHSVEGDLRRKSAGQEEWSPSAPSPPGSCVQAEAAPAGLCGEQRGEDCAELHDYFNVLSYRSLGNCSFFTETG

[2] = molecular target: T2, human TIGIT ECD expressed on the CHO-S cell surface (human, UniProt Q495A1 22-141); assay: flow cytometry blocking assay on CHO-S-human TIGIT cells, competitor biotinylated human CD155-Fc 2 µg/mL
T2 construct: sections 3.13 and 4.1 say only stably expressing human TIGIT; also called CHO-S-hTIGIT; CHO-S-huTIGIT
T2 sequence: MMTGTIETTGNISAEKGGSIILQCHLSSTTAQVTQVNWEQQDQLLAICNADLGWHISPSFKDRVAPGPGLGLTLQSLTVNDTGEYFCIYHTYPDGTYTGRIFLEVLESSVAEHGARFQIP

[3] = molecular target: T1, human TIGIT on cells (primary T cells, …); assay: target occupancy on CD3+ T cells in human whole blood, unoccupied TIGIT detected with biotinylated 3963H03-12, flow cytometry, 9 donors
[4] = molecular target: T2, human TIGIT ECD expressed on the CHO-S …; assay: flow cytometry blocking assay on CHO-S-hTIGIT cells, competitor muCD155-Fc; competitor muCD155-Fc; human IgG 3963H03-12
[5] = molecular target: T1, human TIGIT on cells (primary T cells, …); assay: cell-based or functional assay; remark: listed apart in the source
[6] = molecular target: T3, human TIGIT ECD (wild-type, expressed in E. coli) (human, UniProt Q495A1 22-141); assay: SPR, antibody captured on anti-human Fc, TIGIT ECD injected
T3 construct: also called huTIGIT; wild-type TIGIT
T3 sequence: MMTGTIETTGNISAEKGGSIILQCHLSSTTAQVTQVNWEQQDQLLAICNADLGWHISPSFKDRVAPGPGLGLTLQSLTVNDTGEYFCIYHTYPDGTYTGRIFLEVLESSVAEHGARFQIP

human TIGIT ECD T117A = molecular target: T4, human TIGIT ECD T117A (human, UniProt Q495A1 22-141); assay: as above
T4 construct: point mutant expressed in E. coli
T4 chain: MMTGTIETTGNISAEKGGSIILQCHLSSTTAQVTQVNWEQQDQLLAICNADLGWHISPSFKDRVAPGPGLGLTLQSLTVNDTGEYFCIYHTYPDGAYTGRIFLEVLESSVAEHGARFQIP

human TIGIT ECD H111A = molecular target: T5, human TIGIT ECD H111A (human, UniProt Q495A1 22-141); assay: as above
T5 construct: point mutant expressed in E. coli
T5 chain: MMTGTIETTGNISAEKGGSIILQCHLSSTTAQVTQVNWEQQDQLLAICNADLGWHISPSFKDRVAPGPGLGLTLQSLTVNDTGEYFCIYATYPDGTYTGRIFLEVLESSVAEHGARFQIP

[7] = molecular target: T6, cynomolgus monkey TIGIT on primary T cells (cynomolgus monkey, UniProt A0A7N9I9V4 89-312); assay: target occupancy on CD3+ T cells of cynomolgus monkey spleen cells, unoccupied TIGIT detected with biotinylated 3963H03-12, flow cytometry, 6 donors
T6 construct: whole, on cells; also called cyno PBMCs; cynomolgus monkey spleen cells

[8] = molecular target: T6, cynomolgus monkey TIGIT on primary T …; assay: flow cytometry on CD3+ T cells of cyno PBMCs
[9] = molecular target: T1, human TIGIT on cells (primary T cells, …); assay: flow cytometry, live transfected HEK293 cells
[10] = molecular target: T2, human TIGIT ECD expressed on the CHO-S …; assay: flow cytometry blocking assay on CHO-S-human TIGIT cells, competitor biotinylated human CD112-Fc 2 µg/mL
human TIGIT ECD P114G = molecular target: T7, human TIGIT ECD P114G (human, UniProt Q495A1 22-141); assay: SPR, antibody captured, mutant TIGIT ECD injected
T7 construct: point mutant expressed in E. coli
T7 chain: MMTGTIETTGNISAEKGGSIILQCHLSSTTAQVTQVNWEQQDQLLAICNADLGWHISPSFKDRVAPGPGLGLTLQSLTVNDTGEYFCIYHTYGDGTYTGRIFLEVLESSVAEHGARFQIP

human TIGIT ECD T55A = molecular target: T8, human TIGIT ECD T55A (human, UniProt Q495A1 22-141); assay: SPR, antibody captured, mutant TIGIT ECD injected
T8 construct: point mutant expressed in E. coli
T8 chain: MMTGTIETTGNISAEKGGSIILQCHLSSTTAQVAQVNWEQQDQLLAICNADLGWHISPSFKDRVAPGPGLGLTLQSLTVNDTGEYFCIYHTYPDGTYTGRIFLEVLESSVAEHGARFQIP

human TIGIT ECD Q53A = molecular target: T9, human TIGIT ECD Q53A (human, UniProt Q495A1 22-141); assay: SPR, antibody captured, mutant TIGIT ECD injected
T9 construct: point mutant expressed in E. coli
T9 chain: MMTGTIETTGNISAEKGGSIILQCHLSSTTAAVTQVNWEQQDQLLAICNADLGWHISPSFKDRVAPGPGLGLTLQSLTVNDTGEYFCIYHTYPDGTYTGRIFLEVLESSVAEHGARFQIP

human TIGIT ECD Y113A = molecular target: T10, human TIGIT ECD Y113A (human, UniProt Q495A1 22-141); assay: SPR, antibody captured, mutant TIGIT ECD injected
T10 construct: point mutant expressed in E. coli
T10 chain: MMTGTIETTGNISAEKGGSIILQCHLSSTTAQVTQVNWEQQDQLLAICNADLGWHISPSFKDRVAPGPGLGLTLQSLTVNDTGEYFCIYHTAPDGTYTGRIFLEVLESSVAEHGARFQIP

T6 sequence (A0A7N9I9V4 entry or part of it): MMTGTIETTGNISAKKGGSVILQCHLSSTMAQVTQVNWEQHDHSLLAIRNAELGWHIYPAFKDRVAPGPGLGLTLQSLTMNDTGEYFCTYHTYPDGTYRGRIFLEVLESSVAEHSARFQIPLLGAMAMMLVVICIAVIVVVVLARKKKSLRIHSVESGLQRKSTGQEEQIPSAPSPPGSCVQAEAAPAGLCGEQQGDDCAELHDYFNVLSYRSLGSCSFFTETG

IC50 [2]: 0.165 µg/mL and 1.1 nM
EC50 [3]: 0.24 µg/mL and 1.6 nM
IC50 [4]: 0.499 µg/mL
EC50 [5]: 12.5 µg/mL
Kd [6]: 2.08 nM
ΔΔGmut [6]: 0 kcal/mol
Kd (human TIGIT ECD T117A): 1.58 nM
ΔΔGmut (human TIGIT ECD T117A): -0.17 kcal/mol
Kd (human TIGIT ECD H111A): 30.9 nM
ΔΔGmut (human TIGIT ECD H111A): 1.6 kcal/mol
EC50 [7]: 0.0927 µg/mL and 0.6 nM
EC50 [8]: 0.132 µg/mL and 0.8 nM
fold median fluorescence over vector-only transfected HEK293 cells [9]: 130 fold
IC50 [10]: 0.411 µg/mL and 2.8 nM
binding result (human TIGIT ECD P114G): no binding (tested: 100 nM antigen)
binding result (human TIGIT ECD T55A): no binding (tested: 100 nM antigen)
binding result (human TIGIT ECD Q53A): no binding (tested: 100 nM antigen)
binding result (human TIGIT ECD Y113A): no binding (tested: 100 nM antigen)
B1: 3963H03-12 (antibody, human IgG1, kappa, V domains shown)
VH: QVQLVQSGSELKKPGASVKVSCKASGYTFTSYPMNWVRQAPGQGLEWMGWINTNTGNPTYAQGFTGRFVFSLDTSVSTAYLQISSLKAEDTAVYYCARVGGYSVDEYAFDVWGQGTLVTVSS
VL: DIQLTQSPSFLSASVGDRVTITCRASQGISSYLAWYQQKPGKAPKLLIYAASTLQSGVPSRFSGSGSGTEFTLTISSLQPEDFATYYCQQLSSYPTFGGGTKVEIKR
notes: also called anti-TIGIT H03-12; 39631H03-12
NK-mediated killing of P815.hCD155 cells (Caspase-3/7 signal) [1]: ≤ 2 fold
